US20120040900A1 (BRIGHAM AND WOMEN S HOSPITAL, published 2012)

B1: RR1234L (peptide)
coil peptide: KGGGLEIRAAFLRRRNTALRTRVAELRQRVQRLRNIVSQYETRYGPL
notes: also called RR1234L (pI=12.4); basic coil peptide

Experiments:
[1] = homodimer, circular dichroism thermal denaturation; unit inferred
[2] = target: the molecule itself; assay: homodimer, circular dichroism thermal denaturation; unit not given
RR1234L = target: B1; assay: heterodimer, circular dichroism thermal denaturation; unit inferred

Protein	Tm [1]	ΔG [2]	ΔH [2]	Tm (RR1234L)
LEIEAAFLEQENTALETEVAELEQEVQRLENIVSQYETRYGPLGGGK (also called EE1234L (pI=3.7); acidic coil peptide) [EE1234L]	28 °C	-6.2	-45	> 90 °C
B1	44 °C	-9.4	-66	
